Measurements from the MegaScale stability set (Tsuboyama et al. 2023).

B1: EHEE_rd2_0601 (parent)
chain: TYTYKLTDEEASRRAEDEWRNRGYDVRVRNNNGTWEVEVR

Variants of: B1
Assay: folding stability dG (cDNA display proteolysis); higher = more stable
Conditions: PBS, room temperature

Folding stability dG [kcal/mol], by site and new letter:
R14: I 1.35 | K 1.53 | A 1.36 | P -0.495 | F 1.13 | M 1.2 | E 1 | T 0.957
G23: M -0.97 | K -0.509 | Y -0.588 | Q -0.624 | C 1.14 | F -0.542 | W -0.693 | H -0.048 | N -0.169
N21: E 1.34 | I 1.22 | G 1.42 | T 1.31 | V 1.1 | D 1.16 | W 0.672 | H 1.24 | K 1.97 | L 1.65 | Q 1.65 | A 1.82 | Y 0.831 | S 1.82 | R 1.96 | M 1.58 | F 1.04
W19: E -0.502 | H -0.397 | A 0.133 | M 0.446 | F 1.04 | Y 0.78 | I -0.516 | L 0.884 | N -0.826
R29: C 1.06 | A 0.917 | L 1.4 | N 1.17 | H 1.49 | F 1.63 | I 1.78 | M 1.26 | K 1.35 | E 0.726 | P -0.71 | G 0.418 | D 0.413 | Q 1.18
A15: D 0.605 | G -0.371 | K 1.37 | I 2.2 | N 0.072 | Q 0.788 | R 0.442 | M 2.13 | P -0.743 | Y 1.4 | T 1.43 | H 1.43 | W 1.36 | E 0.824 | F 1.85 | L 2.46 | S 0.658 | V 2.21
V26: P -0.384 | T 0.439 | I 0.319 | F -0.688 | A 0.393
S12: C 2.33 | A 3.22 | L 1.39 | T 1.51 | G 1.14 | H -0.243 | N -0.531 | Y 0.95 | E -0.128 | V 2.17 | F 1.08 | K 0.553 | D -0.63 | I 0.918 | P -0.764 | R 0.481 | W 0.977 | Q 0.072 | M 1.95
E10: W 1.28 | V 1.27 | S 1.22 | N 1.12 | D 1.38 | Y 1.29 | H 1.09 | T 1.23 | K 1.19 | Q 1.41 | A 1.75 | G 1.1 | R 1.06 | I 1.3 | L 1.34 | M 1.41 | F 1.2 | C 1.88 | P 1.02
D17: E 1.99 | I 2.17 | K 2.02 | W 1.92 | H 1.68 | F 1.86 | T 1.99 | R 2.1 | V 2.08 | N 1.78 | M 2.11 | S 1.88 | L 2.06 | Q 2.08 | Y 1.77 | A 2.17 | G 1.24
Y24: C 1.21 | L 0.28 | K -0.577 | F 1.51 | I -0.012 | Q -0.84 | T -0.625 | H 0.447 | N -0.731 | V 0.003 | W 0.791 | R -0.49 | A 0.049 | M 0.281
E16: I 1.82 | K 0.777 | R 1.19 | L 1.54 | Y 1.86 | H 1.08 | Q 1.46 | V 2 | W 1.3 | M 1.68 | A 2.56 | G 1.4 | D -0.24 | S 1.47 | P -0.034 | T 1.29 | F 1.73 | N 0.335
